Holding throughout (type): cell-based, Saccharomyces cerevisiae
In one experiment the test system is Abp1 PPIs. Put plainly: DHFR-PCA of Abp1 SH3-swapped baits (Fig. 2B-D, S2C, S2F). The conditions noted are these: number of interactions of Abp1 carrying the named SH3; sheet FigS2A-B. In short, it runs like this: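 Interactions were scored by DHFR protein-fragment complementation. DHFR F[1,2]-tagged Abp1 strains, whose SH3 was swapped for yeast or human ortholog domains, were crossed on YPD at 30 °C for 48 h with a 1536-format array of 575 prey-DHFR F[3] strains and 40 negatives, giving four replicates per pair. PCA selection lasted 4 days after double diploid selection.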

The test system of another experiment is Abp1 (1xFLAG). As to the kind of experiment: Western blot expression level of Abp1 SH3-swapped baits (Fig. S2A-B). Also on record: Flag (2 bands): unit not given here. The conditions noted are these: sheet FigS2A-B; for Ratio Swap/WT Flag: Flag signal relative to Abp1 WT (Abp1-1 to Abp1-4 = 1); for Flag (2 bands): Western blot Flag signal (2 bands), Abp1 WT, SH3-deleted or SH3-swapped. The essentials: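 Yeast expressing DHFR F[1,2]-FLAG-tagged baits grown in synthetic complete medium at 30 °C to OD600 ~1.0, lysed with glass beads in Tris pH 7.4/150 mM NaCl/1% Triton X-100. Baits immunoprecipitated on FLAG-M2 beads 120 min at 4 °C, resolved on 10% SDS-PAGE, probed with anti-FLAG HRP (ECL), signals quantified by imager.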

The subject of another experiment is BBC1. As to the kind of experiment: DHFR-PCA on solid medium, bait BBC1 (Fig. 1B). The conditions noted are these: bait BBC1, label = prey; for medrep (log2 median colony size normalized to plate background, PCA score): 2-4 replicates; for Ratio (SH3-deleted/WT medrep): only significant differences showed, PPIs completely lost have a ratio of 0.1 and the gained PPIs 2.5. An excerpt: (§1) Supplement 41467_2021_21873_MOESM8_ESM.xlsx, sheet "Fig1B" | column: medsize; medrep; Ratio; Score

The subject of the next experiment is ABP1. As to the kind of experiment: DHFR-PCA on solid medium, bait ABP1 (Fig. 1B). The conditions noted are these: bait ABP1, label = prey; 2-4 replicates.
Text: as §1

B1: Pin3 (protein, UniProt Q06449 2-215, looked up)
[PSI+] inducibility protein 3: SASLINRSLTNIRTELDFLKGSNVISNDVYDQINKSLPAKWDPANAPRNASPASLEYVEALYQFDPQQDGDLGLKPGDKVQLLEKLSPEWYKGSCNGRTGIFPANYVKPAFSGSNGPSNLPPPPQYKAQELQQIPTQNSAASSYQQQPFPPPSTNYYQQPQQQPQQAPPPQQQQQQQQHQSSHSHLKSFGSKLGNAAIFGAGASIGSDIVNNIF
For the molecule B1, the “Interactions in Abp1” value in the experiment on Abp1 PPIs is recorded as 99. Also, in the experiment on Abp1 (1xFLAG), the “Ratio Swap/WT Flag” value is on record as 0.2499 and the “Flag (2 bands)” value turned out to be 57952.

B2: Abp1-1 (protein, UniProt P15891 2-592, looked up)
Actin-binding protein: ALEPIDYTTHSREIDAEYLKIVRGSDPDTTWLIISPNAKKEYEPESTGSSFHDFLQLFDETKVQYGLARVSPPGSDVEKIIIIGWCPDSAPLKTRASFAANFAAVANNLFKGYHVQVTARDEDDLDENELLMKISNAAGARYSIQTSSKQQGKASTPPVKKSFTPSKSPAPVSKKEPVKTPSPAPAAKISSRVNDNNDDDDWNEPELKERDFDQAPLKPNQSSYKPIGKIDLQKVIAEEKAKEDPRLVQKPTAAGSKIDPSSDIANLKNESKLKRDSEFNSFLGTTKPPSMTESSLKNDDDKVIKGFRNEKSPAQLWAERKAKQNSGNAETKAEAPKPEVPEDEPEGEPDVKDLKSKFEGLAASEKEEEEMENKFAPPPKKSEPTIISPKPFSKPQEPVKAEEAEQPKTDYKKIGNPLPGMHIEADNEEEPEENDDDWDDDEDEAAQPPLPSRNVASGAPVQKEEPEQEEIAPSLPSRNSIPAPKQEEAPEQAPEEEIEEEAEEAAPQLPSRSSAAPPPPPRRATPEKKPKENPWATAEYDYDAAEDNELTFVENDKIINIEFVDDDWWLGELEKDGSKGLFPSNYVSLGN
Turning to B2, the “Interactions in Abp1” value with Abp1 PPIs was found to be 86. Also, in the experiment with Abp1 (1xFLAG), the “Ratio Swap/WT Flag” value came out at 1 and the “Flag (2 bands)” value was 96800.

B3: Sdc25 (protein, UniProt P0CF34 1-1048, looked up)
Putative truncated guanine …: MPITSSPDLFYLNDCDVVYWYDLTRLVCHYVNLTERDLLANEREKFLTSLDLLTAQITYVYMLFRNLRLVEDSFKKTLKKLIYTLSRFSINANIWFHSTLFEEREAIASQKDPERRSPLLQSILGTFQKFHFLLRLLHFLSNPNELTILPQLTPRFFKDSFNTISWNNPFLRKRLNQHMSHDLPRQMIKAVAGASGIVAENIDEIPASKQGTSCSSETSHHSPSAPFQRRRRGTIFSNVSGSSDESDTIWSKRKKPYPLNEETLSLVRARKKQLDGKLKQMIKSANEYLSNTANFSKMLNFEMNFKTYEEVSGTIPIIDILENLDLTIFLNLRELGDENRVFDEDVAIDDEDEEFLKHSLSSLSYILSDYFNMKQYFHDVVVKFIIVAQHLTLEDPFVFSPMQNDLPTGYYEPMKPSSLNLDNAKDKKNGSQNTDIQEEEDEYEPDPDSLILFHNLINQDSDFNDLKFFNLAHVFKKSCDDYFDVLKLAIEFVNQLILERENLLNYAARMMKNNITELLLRGEEGYGSYDGGETAEKSDTNAVYADSDTKDNDEWRDSQVKLPRYLQREYDSELIWGSNNRIKGGSKHALISYLTDNEKKDLFFDITFLITFRSIFTTTEFLSYLISQYNLDPPEDLCFEEYNEWVTKKLIPVKCRVVEIMTTFFKQYWFLGYDEPDLATLNLDYFAQVAIKENITGSVELLKEVNQKFKHGNIQEATAPMKTLDQQICQDHYSGTLYSTTESILAVDPVLFATQLTILEHEIYCEITIFDCLQKIWKNKYTKSYGASPGLNEFISFANKLTNFISYSVVKEADKSKRAKLLSHFIFIAEYCRKFNNFSSMTAIISALYSSPIYRLEKTWQAVIPQTRDLLQSLNKLMDPKKNFINYRNELKSLHSAPCVPFFGVYLSDLTFTDSGNPDYLVLEHGLKGVHDEKKYINFNKRSRLVDILQEIIYFKKTHYDFTKDRTVIECISNSLENIPHIEKQYQLSLIIEPKPRKKVVPNSNSNNKSQEKSRDDQTDEGKTSTKKDRFPKFQLHKTKKKAPKVSK
Consider B3, for which the “Interactions in Abp1” value in the experiment on Abp1 PPIs came to 10. Also, in the experiment on Abp1 (1xFLAG), the “Ratio Swap/WT Flag” value is given as 0.3589 and the “Flag (2 bands)” value was 83248.

B4: Ysc84 (protein, UniProt P32793 1-468, looked up)
Protein YSC84: MGINNPIPRSLKSETKKAAKVLRSFVKPNQVFGADQVIPPYVLKRAKGLAIITVLKAGFLFSGRAGSGVIVARLKDGTWSAPSAIAMAGAGAGGMVGVELTDFVFILNSEEAVRSFSEFGTITLGGNVSVSAGPLGRSAEAAASASTGGVSAVFAYSKSKGLFAGVSVEGSAILERREANRKFYGDNCTSKMILSGRVKVPPAADPLLRILESRAFNFTRHDHDDNASGDDFYDDGQYSDNTSHYYDDIPDSFDSTDESSTRPNTRSSRRRGMSLGSRSRYDDDYDDDGYGRGRGYGDFDSEDEDYDYGRSPNRNSSRNRGPQIDRGTKPRANTRWEDDLYDRDTEYSRPNHSGRDYDNTRGNRRGYGRERGYSLGHGPTHPSNMSNVDDLSHKMSKTGLGNESTATNSATPTAVALYNFAGEQPGDLAFKKGDVITILKKSDSQNDWWTGRTNGKEGIFPANYVRVS
B4: the “Interactions in Abp1” value in the experiment on Abp1 PPIs worked out at 108. Moreover, in the experiment on Abp1 (1xFLAG), the “Ratio Swap/WT Flag” value came to 0.8764 and the “Flag (2 bands)” value is 203262.

B5: Sho1 (protein, UniProt P40073 1-367, looked up)
High osmolarity signaling …: MSISSKIRPTPRKPSRMATDHSFKMKKFYADPFAISSISLAIVSWVIAIGGSISSASTNESFPRFTWWGIVYQFLIICSLMLFYCFDLVDHYRIFITTSIAVAFVYNTNSATNLVYADGPKKAAASAGVILLSIINLIWILYYGGDNASPTNRWIDSFSIKGIRPSPLENSLHRARRRGNRNTTPYQNNVYNDAIRDSGYATQFDGYPQQQPSHTNYVSSTALAGFENTQPNTSEAVNLHLNTLQQRINSASNAKETNDNSNNQTNTNIGNTFDTDFSNGNTETTMGDTLGLYSDIGDDNFIYKAKALYPYDADDDDAYEISFEQNEILQVSDIEGRWWKARRANGETGIIPSNYVQLIDGPEEMHR
Regarding B5, the “Interactions in Abp1” value in the experiment on Abp1 PPIs is on record as 81. In the experiment with Abp1 (1xFLAG), the “Ratio Swap/WT Flag” value amounted to 0.6541 and the “Flag (2 bands)” value came to 151709.

B6: YLR196W (protein, UniProt P21304 1-576, looked up)
Periodic tryptophan protein 1: MISATNWVPRGFSSEFPEKYVLDDEEVERINQLAQLNLDDAKATLEEAEGESGVEDDAATGSSNKLKDQLDIDDDLKEYNLEEYDDEEIADNEGGKDVSMFPGLSNDSDVKFHEGEKGEDPYISLPNQEDSQEEKQELQVYPSDNLVLAARTEDDVSYLDIYVYDDGAGFHSSDIPVEEGDEADPDVARGLVRDPALYVHHDLMLPAFPLCVEWLDYKVGSNSEEAANYAAIGTFDPQIEIWNLDCVDKAFPDMILGEPLDNSMVSLKSKKKKKKSKTGHITTHHTDAVLSMAHNKYFRSVLASTSADHTVKLWDLNSGNAARSLASIHSNKNVSSSEWHMLNGSILLTGGYDSRVALTDVRISDESQMSKYWSAMAGEEIETVTFASENIILCGTDSGNVYSFDIRNNENRKPVWTLKAHDAGISTLCSNKFIPGMMSTGAMGEKTVKLWKFPLDDATNTKGPSMVLSRDFDVGNVLTSSFAPDIEVAGTMVIGGVNKVLKLWDVFTNRSVRKSFKSELENVQARAKEEAQKIGKSSRIARKYTSNDNPDTVITIDDQGEDEEEREGGDEHDDMA
With B6, in the experiment with BBC1, the “medrep (log2 median colony size normalized to plate background, PCA score)” value is listed as 2.428 and the “Ratio (SH3-deleted/WT medrep)” value stood at 0.1. The “medrep (log2 median colony size normalized to plate background, PCA score)” value in the experiment on ABP1 is given as 3.732.

B7: Boi1 (protein, UniProt P38041 1-980, looked up)
BEM1-interacting protein 1: MSLEGNTLGKGAKSFPLYIAVNQYSKRMEDELNMKPGDKIKVITDDGEYNDGWYYGRNLRTKEEGLYPAVFTKRIAIEKPENLHKSPTQESGNSGVKYGNLNDSASNIGKVSSHQQENRYTSLKSTMSDIDKALEELRSGSVEQEVSKSPTRVPEVSTPQLQDEQTLIQEKTRNEENTTHDSLFSSTADLNLSSESLKNISKSNISTKSLEPSSESVRQLDLKMAKSWSPEEVTDYFSLVGFDQSTCNKFKEHQVSGKILLELELEHLKELEINSFGIRFQIFKEIRNIKSAIDSSSNKLDADYSTFAFENQAAQLMPAATVNRDEIQQQISSKCNKLSSESSDRKSSSVTTELQRPSSVVVNPNFKLHDPAEQILDMTEVPNLFADKDIFESPGRAPKPPSYPSPVQPPQSPSFNNRYTNNNARFPPQTTYPPKNKNPTVYSNGLIPNSSTSSDNSTGKFKFPAMNGHDSNSRKTTLTSATIPSINTVNTDESLPAISNISSNATSHHPNRNSVVYNNHKRTESGSSFVDLFNRISMLSPVKSSFDEEETKQPSKASRAVFDSARRKSSYGHSRDASLSEMKKHRRNSSILSFFSSKSQSNPTSPTKQTFTIDPAKMTSHSRSQSNSYSHARSQSYSHSRKHSLVTSPLKTSLSPINSKSNIALAHSETPTSSNNKEAVSQPSEGKHKHKHKHKSKHKHKNSSSKDGSSEEKSKKKLFSSTKESFVGSKEFKRSPSELTQKSTKSILPRSNAKKQQTSAFTEGIRSITAKESMQTADCSGWMSKKGTGAMGTWKQRFFTLHGTRLSYFTNTNDEKERGLIDITAHRVLPASDDDRLISLYAASLGKGKYCFKLVPPQPGSKKGLTFTEPRVHYFAVENKSEMKAWLSAIIKATIDIDTSVPVISSYATPTIPLSKAQTLLEEARLQTQLRDAEEEEGRDQFGWDDTQNKRNSNYPIEQDQFETSDYLESSAFEYPGGRL
As to B7, the “Interactions in Abp1” value in the experiment with Abp1 PPIs worked out at 70. Also, in the experiment on Abp1 (1xFLAG), the “Ratio Swap/WT Flag” value is reported as 0.615 and the “Flag (2 bands)” value was determined as 59532.

B8: YFL010C (protein, UniProt P43582 1-211, looked up)
WW domain-containing protein …: MAQSKSNPPQVPSGWKAVFDDEYQTWYYVDLSTNSSQWEPPRGTTWPRPKGPPPGVNNEKSSRQQADQAPPPYSSQSTPQVQAGAQAQQPRYYQPQQPQYPQYPQQQRYYPQQAPMPAAAPQQAYYGTAPSTSKGSGHGGAMMGGLLGVGAGLLGGAMLEHAFDDHNYDGPDTVVVENNYYGDDAGGSDGGFDDAGGFDGGFDDGFDGSDF
As to B8, in the experiment with BBC1, the “medrep (log2 median colony size normalized to plate background, PCA score)” value was found to be 1.4009 and the “Ratio (SH3-deleted/WT medrep)” value worked out at 0.1. For the same molecule, in the experiment on ABP1, the “medrep (log2 median colony size normalized to plate background, PCA score)” value turned out to be 2.163.

For the origin of these results see PMC7954794, “Protein context shapes the specificity of SH3 domain-mediated interactions in vivo” (Nature Communications, 2021).
